The target of the data set is T1, P2-TmEnc^BC2-Tag.
T1 chain: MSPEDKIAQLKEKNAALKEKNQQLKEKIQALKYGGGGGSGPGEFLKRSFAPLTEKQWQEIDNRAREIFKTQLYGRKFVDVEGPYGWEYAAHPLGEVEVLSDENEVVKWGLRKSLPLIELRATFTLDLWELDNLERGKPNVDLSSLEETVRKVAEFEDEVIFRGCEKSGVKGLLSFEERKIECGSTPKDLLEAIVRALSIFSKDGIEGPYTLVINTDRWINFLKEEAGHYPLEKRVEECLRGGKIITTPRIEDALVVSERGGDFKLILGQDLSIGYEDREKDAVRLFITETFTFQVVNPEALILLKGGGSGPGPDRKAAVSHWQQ

B1: BmTyr-P1 (protein)
chain: MGHSNKYRVRKNVLHLTDTEKRDFVRTVLILKEKGIYDRYIAWHGAAGKFHTPPGSDRNAAHMSSAFLPWHREYLLRFERDLQSINPEVTLPYWEWETDAQMQDPSQSQIWSADFMGGNGNPIKDFIVDTGPFAAGRWTTIDEQGNPSGGLKRNFGATKEAPTLPTRDDVLNALKITQYDTPPWDMTSQNSFRNQLEGFINGPQLHNRVHRWVGGQMGVVPTAPNDPVFFLHHANVDRIWAVWQIIHRNQNYQPMKNGPFGQNFRDPMYPWNTTPEDVMNHRKLGYVYDIELRKSKRSSGGGGSGGGGSTGSPEDEIQALEEENAQLEQENAALEEEIAQLEYGSGSETPGTSESATPESAISHGFPPEVEEQAAGTLPMSCAQESGMDRHPAACASARINV
Turning to B1, the “melanin formation on CN-PAGE” value is on record as “melanin formation could be demonstrated by color formation on CN-PAGE” and the “melanin formation on clear native PAGE” value is given as “The dark high molecular weight bands at 1.0 MDa represent melanin-loaded TmEnc nanospheres”.

Source of the values: US20250264455.
